Holding throughout (details): Homo sapiens
Compound in series [1]: CCCCCCCCCCCCCCCc1cccc(O)c1C(=O)O
The series is described as follows: Inhibition of recombinant N-terminal His6-tagged KAT8 (unknown origin) expressed in Escherichia Coli BL21 DE3 cells assessed as Vmax for histone H4 peptide at 160 uM.

Compound in series [2]: CCCCCCCCCCCCCCCc1cccc(O)c1C(=O)O
In words: Inhibition of recombinant N-terminal His6-tagged KAT8 (unknown origin) expressed in Escherichia Coli BL21 DE3 cells assessed as Vmax for histone H4 peptide at 80 uM.

Compound in series [3]: CCCCCCCCCCCCCCCc1cccc(O)c1C(=O)O
In words: Inhibition of recombinant N-terminal His6-tagged KAT8 (unknown origin) expressed in Escherichia Coli BL21 DE3 cells assessed as Vmax for histone H4 peptide at 240 uM.

Compound in series [4]: CCCCCCCCCCCCCCCc1cccc(O)c1C(=O)O
The series is described as follows: Uncompetitive inhibition of recombinant N-terminal His6-tagged KAT8 (unknown origin) expressed in Escherichia Coli BL21 DE3 cells assessed as Vmax for acetyl coenzyme A at 160 uM.

Compound in series [5]: CCCCCCCCCCCCCCCc1cccc(O)c1C(=O)O
The series is described as follows: Uncompetitive inhibition of recombinant N-terminal His6-tagged KAT8 (unknown origin) expressed in Escherichia Coli BL21 DE3 cells assessed as Km for acetyl coenzyme A at 240 uM.

Compound in series [6]: CCCCCCCCCCCCCCCc1cccc(O)c1C(=O)O
The series is described as follows: Uncompetitive inhibition of recombinant N-terminal His6-tagged KAT8 (unknown origin) expressed in Escherichia Coli BL21 DE3 cells assessed as Vmax for acetyl coenzyme A at 80 uM.

Compound in series [7]: CCCCCCCCCCCCCCCc1cccc(O)c1C(=O)O
In words: Uncompetitive inhibition of recombinant N-terminal His6-tagged KAT8 (unknown origin) expressed in Escherichia Coli BL21 DE3 cells assessed as Km for acetyl coenzyme A at 80 uM.

Compound in series [8]: CCCCCCCCCCCCCCCc1cccc(O)c1C(=O)O
In words: Uncompetitive inhibition of recombinant N-terminal His6-tagged KAT8 (unknown origin) expressed in Escherichia Coli BL21 DE3 cells assessed as Km for acetyl coenzyme A at 160 uM.

Compound in series [9]: CCCCCCCCCCCCCCCc1cccc(O)c1C(=O)O
The series is described as follows: Uncompetitive inhibition of recombinant N-terminal His6-tagged KAT8 (unknown origin) expressed in Escherichia Coli BL21 DE3 cells assessed as Vmax for acetyl coenzyme A at 240 uM.

B1: Histone acetyltransferase KAT8 (Homo sapiens), Q9H7Z6 (protein)
chain: MAAQGAAAAVAAGTSGVAGEGEPGPGENAAAEGTAPSPGRVSPPTPARGEPEVTVEIGETYLCRRPDSTWHSAEVIQSRVNDQEGREEFYVHYVGFNRRLDEWVDKNRLALTKTVKDAVQKNSEKYLSELAEQPERKITRNQKRKHDEINHVQKTYAEMDPTTAALEKEHEAITKVKYVDKIHIGNYEIDAWYFSPFPEDYGKQPKLWLCEYCLKYMKYEKSYRFHLGQCQWRQPPGKEIYRKSNISVYEVDGKDHKIYCQNLCLLAKLFLDHKTLYFDVEPFVFYILTEVDRQGAHIVGYFSKEKESPDGNNVACILTLPPYQRRGYGKFLIAFSYELSKLESTVGSPEKPLSDLGKLSYRSYWSWVLLEILRDFRGTLSIKDLSQMTSITQNDIISTLQSLNMVKYWKGQHVICVTPKLVEEHLKSAQYKKPPITVDSVCLKWAPPKHKQVKLSKK
Consider B1, for which the maximal velocity (Vmax) in series [1] is 12 pmol/min; in [2], 12 pmol/min; in series [3], 12 pmol/min; in series [4] it was 9.2 pmol/min; in [6] it was 12 pmol/min; in [9], 6.1 pmol/min. The Km in series [5] was found to be 1 µM; in [7], 2.4 µM; in [8], 1.9 µM.
